This is an account of results in patent US20140105889A1 (published 2014).

Assay in all cases: SPR (Biacore); binding amount divided by that of control IL6R-BF648/IL6R-L, x100
For orientation: SPR reads the build-up and loss of mass on a sensor chip optically.

One experiment addresses T1, human FcγRIIb (human, UniProt P31994 43-217, limits assumed).
T1 construct: also called FcgRIIb; FcγIIB
T1 sequence: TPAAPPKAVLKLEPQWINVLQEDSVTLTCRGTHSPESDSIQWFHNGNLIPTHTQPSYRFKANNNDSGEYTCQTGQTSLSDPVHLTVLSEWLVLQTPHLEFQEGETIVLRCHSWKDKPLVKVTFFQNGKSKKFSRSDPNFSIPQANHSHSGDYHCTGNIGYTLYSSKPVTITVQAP

For a further experiment, the target named is T2, human FcγRIa (human, UniProt P12314 16-292, limits assumed).
T2 construct: also called FcgRIa; CD64
T2 sequence (P12314 16-292 limits assumed): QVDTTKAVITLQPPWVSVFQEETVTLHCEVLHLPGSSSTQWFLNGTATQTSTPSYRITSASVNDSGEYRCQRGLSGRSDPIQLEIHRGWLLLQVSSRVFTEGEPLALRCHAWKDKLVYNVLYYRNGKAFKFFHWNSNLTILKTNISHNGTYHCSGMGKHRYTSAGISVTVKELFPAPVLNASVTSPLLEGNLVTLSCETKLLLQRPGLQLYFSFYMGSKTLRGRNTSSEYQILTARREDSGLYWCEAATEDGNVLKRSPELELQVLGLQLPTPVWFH

In a further experiment the target is T3, human FcγRIIa type H (human, UniProt P12318 36-217).
T3 construct: also called FcgRIIaH; FcγRIIa(H)
T3 sequence: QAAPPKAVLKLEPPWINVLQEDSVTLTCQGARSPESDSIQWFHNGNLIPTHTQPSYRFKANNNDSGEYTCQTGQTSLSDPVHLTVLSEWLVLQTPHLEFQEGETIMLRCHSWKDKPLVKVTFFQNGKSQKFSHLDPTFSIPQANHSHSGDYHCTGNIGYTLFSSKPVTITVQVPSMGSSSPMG

Description for human FcγRIIa type H: (§1) According to the following method, relative binding activities were calculated for the results of analyzing interactions with the respective FcγRs.
Description for human FcγRIIb: as §1
Description for human FcγRIa: as §1

B1: IL6R-BP188/IL6R-L (antibody, human IgG1)
heavy: QVQLQESGPGLVKPSETLSLTCAVSGHSISHDHAWSWVRQPPGEGLEWIGFISYSGITNYNPSLQGRVTISRDNSKNTLYLQMNSLRAEDTAVYYCARSLARTTAMDYWGEGTLVTVSSASTKGPSVFPLAPSSKSTSGGTAALGCLVKDYFPEPVTVSWNSGALTSGVHTFPAVLQSSGLYSLSSVVTVPSSSLGTQTYICNVNHKPSNTKVDKKVEPKSCDKTHTCPPCPAPDLLGDDSVFLFPPKPKDTLMISRTPEVTCVVVDVSDEDGEVKFNWYVDGVEVHNAKTKPREEQYNSTYRVVSVLTVLHQDWLNGKEYKCKVSNKALPKPIEKTISKAKGQPREPQVYTLPPSRDELTKNQVSLTCLVKGFYPSDIAVEWESNGQPENNYKTTPPVLDSDGSFFLYSKLTVDKSRWQQGNVFSCSVMHEALHNHYTQESLSLSP
light: DIQMTQSPSSLSASVGDRVTITCRASQDISSYLNWYQQKPGKAPKLLIYYTSRLHSGVPSRFSGSGSGTDFTFTISSLQPEDIATYYCQQGNTLPYTFGQGTKVEIK
notes: The common L chain is IL6R-L; copies: 2 + 2
B1: the relative binding activity with human FcγRIIb is 179 % of IL6R-BF648/IL6R-L; in the experiment with human FcγRIa it was 74 % of IL6R-BF648/IL6R-L.

B2: IL6R-BP193/IL6R-L (antibody, human IgG1)
heavy: QVQLQESGPGLVKPSETLSLTCAVSGHSISHDHAWSWVRQPPGEGLEWIGFISYSGITNYNPSLQGRVTISRDNSKNTLYLQMNSLRAEDTAVYYCARSLARTTAMDYWGEGTLVTVSSASTKGPSVFPLAPSSKSTSGGTAALGCLVKDYFPEPVTVSWNSGALTSGVHTFPAVLQSSGLYSLSSVVTVPSSSLGTQTYICNVNHKPSNTKVDKKVEPKSCDKTHTCPPCPAPDLLGGDSVFLFPPKPKDTLMISRTPEVTCVVVDVSDEDGEVKFNWYVDGVEVHNAKTKPREEQYNSTYRVVSVLTVLHQDWLNGKEYKCKVSNKALPKPIEKTISKAKGQPREPQVYTLPPSRDELTKNQVSLTCLVKGFYPSDIAVEWESNGQPENNYKTTPPVLDSDGSFFLYSKLTVDKSRWQQGNVFSCSVMHEALHNHYTQESLSLSP
light: DIQMTQSPSSLSASVGDRVTITCRASQDISSYLNWYQQKPGKAPKLLIYYTSRLHSGVPSRFSGSGSGTDFTFTISSLQPEDIATYYCQQGNTLPYTFGQGTKVEIK
notes: as for B1
Consider B2, for which the relative binding activity with human FcγRIIa type H is 154 % of IL6R-BF648/IL6R-L; with human FcγRIIb, 173 % of IL6R-BF648/IL6R-L; with human FcγRIa, 113 % of IL6R-BF648/IL6R-L.

B3: IL6R-BP200/IL6R-L (antibody)
heavy: QVQLQESGPGLVKPSETLSLTCAVSGHSISHDHAWSWVRQPPGEGLEWIGFISYSGITNYNPSLQGRVTISRDNSKNTLYLQMNSLRAEDTAVYYCARSLARTTAMDYWGEGTLVTVSSASTKGPSVFPLAPSSKSTSGGTAALGCLVKDYFPEPVTVSWNSGALTSGVHTFPAVLQSSGLYSLSSVVTVPSSSLGTQTYICNVNHKPSNTKVDKKVEPKSCDKTHTCPPCPAPDYLGDDSVFLFPPKPKDTLMISRTPEVTCVVVDVSHEDGEVKFNWYVDGVEVHNAKTKPREEQYNSTYRVVSVLTVLHQDWLNGKEYKCKVSNDALPRPIEKTISKAKGQPREPQVYTLPPSRDELTKNQVSLTCLVKGFYPSDIAVEWESNGQPENNYKTTPPVLDSDGSFFLYSKLTVDKSRWQQGNVFSCSVMHEALHNHYTQESLSLSP
light: DIQMTQSPSSLSASVGDRVTITCRASQDISSYLNWYQQKPGKAPKLLIYYTSRLHSGVPSRFSGSGSGTDFTFTISSLQPEDIATYYCQQGNTLPYTFGQGTKVEIK
notes: copies: 2 + 2
Consider B3, for which the relative binding activity with human FcγRIIa type H is 517 % of IL6R-BF648/IL6R-L; in the experiment with human FcγRIIb, 188 % of IL6R-BF648/IL6R-L; with human FcγRIa it was 60 % of IL6R-BF648/IL6R-L.

B4: IL6R-BP204/IL6R-L (antibody, human IgG1)
heavy: QVQLQESGPGLVKPSETLSLTCAVSGHSISHDHAWSWVRQPPGEGLEWIGFISYSGITNYNPSLQGRVTISRDNSKNTLYLQMNSLRAEDTAVYYCARSLARTTAMDYWGEGTLVTVSSASTKGPSVFPLAPSSKSTSGGTAALGCLVKDYFPEPVTVSWNSGALTSGVHTFPAVLQSSGLYSLSSVVTVPSSSLGTQTYICNVNHKPSNTKVDKKVEPKSCDKTHTCPPCPAPDLLGGDSVFLFPPKPKDTLMISRTPEVTCVVVDVSHEDGEVKFNWYVDGVEVHNAKTKPREEQYNSTYRVVSVLTVLHQDWLNGKEYKCKVSNAALPRPIEKTISKAKGQPREPQVYTLPPSRDELTKNQVSLTCLVKGFYPSDIAVEWESNGQPENNYKTTPPVLDSDGSFFLYSKLTVDKSRWQQGNVFSCSVMHEALHNHYTQESLSLSP
light: DIQMTQSPSSLSASVGDRVTITCRASQDISSYLNWYQQKPGKAPKLLIYYTSRLHSGVPSRFSGSGSGTDFTFTISSLQPEDIATYYCQQGNTLPYTFGQGTKVEIK
notes: as for B1
Take B4: the relative binding activity with human FcγRIIa type H is 137 % of IL6R-BF648/IL6R-L; in the experiment with human FcγRIIb, 165 % of IL6R-BF648/IL6R-L; with human FcγRIa, 110 % of IL6R-BF648/IL6R-L.

B5: IL6R-BP202/IL6R-L (antibody, human IgG1)
heavy: QVQLQESGPGLVKPSETLSLTCAVSGHSISHDHAWSWVRQPPGEGLEWIGFISYSGITNYNPSLQGRVTISRDNSKNTLYLQMNSLRAEDTAVYYCARSLARTTAMDYWGEGTLVTVSSASTKGPSVFPLAPSSKSTSGGTAALGCLVKDYFPEPVTVSWNSGALTSGVHTFPAVLQSSGLYSLSSVVTVPSSSLGTQTYICNVNHKPSNTKVDKKVEPKSCDKTHTCPPCPAPELLGDDSVFLFPPKPKDTLMISRTPEVTCVVVDVSHEDGEVKFNWYVDGVEVHNAKTKPREEQYNSTYRVVSVLTVLHQDWLNGKEYKCKVSNAALPRPIEKTISKAKGQPREPQVYTLPPSRDELTKNQVSLTCLVKGFYPSDIAVEWESNGQPENNYKTTPPVLDSDGSFFLYSKLTVDKSRWQQGNVFSCSVMHEALHNHYTQESLSLSP
light: DIQMTQSPSSLSASVGDRVTITCRASQDISSYLNWYQQKPGKAPKLLIYYTSRLHSGVPSRFSGSGSGTDFTFTISSLQPEDIATYYCQQGNTLPYTFGQGTKVEIK
notes: as for B1
As to B5, the relative binding activity is 285 % of IL6R-BF648/IL6R-L with human FcγRIIa type H, 185 % of IL6R-BF648/IL6R-L with human FcγRIIb and 43 % of IL6R-BF648/IL6R-L in the experiment with human FcγRIa.

B6: IL6R-BP210/IL6R-L (antibody, human IgG1)
heavy: QVQLQESGPGLVKPSETLSLTCAVSGHSISHDHAWSWVRQPPGEGLEWIGFISYSGITNYNPSLQGRVTISRDNSKNTLYLQMNSLRAEDTAVYYCARSLARTTAMDYWGEGTLVTVSSASTKGPSVFPLAPSSKSTSGGTAALGCLVKDYFPEPVTVSWNSGALTSGVHTFPAVLQSSGLYSLSSVVTVPSSSLGTQTYICNVNHKPSNTKVDKKVEPKSCDKTHTCPPCPAPELLGDDSVFLFPPKPKDTLMISRTPEVTCVVVDVSDEDGEVKFNWYVDGVEVHNAKTKPREEQYNSTYRVVSVLTVLHQDWLNGKEYKCKVSNKALPRPIEKTISKAKGQPREPQVYTLPPSRDELTKNQVSLTCLVKGFYPSDIAVEWESNGQPENNYKTTPPVLDSDGSFFLYSKLTVDKSRWQQGNVFSCSVMHEALHNHYTQESLSLSP
light: DIQMTQSPSSLSASVGDRVTITCRASQDISSYLNWYQQKPGKAPKLLIYYTSRLHSGVPSRFSGSGSGTDFTFTISSLQPEDIATYYCQQGNTLPYTFGQGTKVEIK
notes: as for B1
For the molecule B6, the relative binding activity with human FcγRIIa type H is 279 % of IL6R-BF648/IL6R-L; with human FcγRIIb, 187 % of IL6R-BF648/IL6R-L; with human FcγRIa it was 57 % of IL6R-BF648/IL6R-L.

B7: IL6R-BP205/IL6R-L (antibody, human IgG1)
heavy: QVQLQESGPGLVKPSETLSLTCAVSGHSISHDHAWSWVRQPPGEGLEWIGFISYSGITNYNPSLQGRVTISRDNSKNTLYLQMNSLRAEDTAVYYCARSLARTTAMDYWGEGTLVTVSSASTKGPSVFPLAPSSKSTSGGTAALGCLVKDYFPEPVTVSWNSGALTSGVHTFPAVLQSSGLYSLSSVVTVPSSSLGTQTYICNVNHKPSNTKVDKKVEPKSCDKTHTCPPCPAPDLLGGDSVFLFPPKPKDTLMISRTPEVTCVVVDVSHEDGEVKFNWYVDGVEVHNAKTKPREEQDNSTYRVVSVLTVLHQDWLNGKEYKCKVSNKALPRPIEKTISKAKGQPREPQVYTLPPSRDELTKNQVSLTCLVKGFYPSDIAVEWESNGQPENNYKTTPPVLDSDGSFFLYSKLTVDKSRWQQGNVFSCSVMHEALHNHYTQESLSLSP
light: DIQMTQSPSSLSASVGDRVTITCRASQDISSYLNWYQQKPGKAPKLLIYYTSRLHSGVPSRFSGSGSGTDFTFTISSLQPEDIATYYCQQGNTLPYTFGQGTKVEIK
notes: as for B1
For B7, the relative binding activity with human FcγRIIa type H is 108 % of IL6R-BF648/IL6R-L; with human FcγRIIb it was 167 % of IL6R-BF648/IL6R-L; in the experiment with human FcγRIa, 97 % of IL6R-BF648/IL6R-L.

B8: IL6R-BP201/IL6R-L (antibody, human IgG1)
heavy: QVQLQESGPGLVKPSETLSLTCAVSGHSISHDHAWSWVRQPPGEGLEWIGFISYSGITNYNPSLQGRVTISRDNSKNTLYLQMNSLRAEDTAVYYCARSLARTTAMDYWGEGTLVTVSSASTKGPSVFPLAPSSKSTSGGTAALGCLVKDYFPEPVTVSWNSGALTSGVHTFPAVLQSSGLYSLSSVVTVPSSSLGTQTYICNVNHKPSNTKVDKKVEPKSCDKTHTCPPCPAPDLLGDDSVFLFPPKPKDTLMISRTPEVTCVVVDVSHEDGEVKFNWYVDGVEVHNAKTKPREEQYNSTYRVVSVLTVLHQDWLNGKEYKCKVSNKALPRPIEKTISKAKGQPREPQVYTLPPSRDELTKNQVSLTCLVKGFYPSDIAVEWESNGQPENNYKTTPPVLDSDGSFFLYSKLTVDKSRWQQGNVFSCSVMHEALHNHYTQESLSLSP
light: DIQMTQSPSSLSASVGDRVTITCRASQDISSYLNWYQQKPGKAPKLLIYYTSRLHSGVPSRFSGSGSGTDFTFTISSLQPEDIATYYCQQGNTLPYTFGQGTKVEIK
notes: as for B1
Consider B8, for which the results for the relative binding activity with human FcγRIIa type H, with human FcγRIIb and in the experiment with human FcγRIa were 359 % of IL6R-BF648/IL6R-L, 186 % of IL6R-BF648/IL6R-L and 57 % of IL6R-BF648/IL6R-L, respectively.
